Measurements published in patent publication US10190113B2, “Methods and compositions for segregating target nucleic acid from mixed nucleic acid samples” (FLIR DETECTION, INC., priority 2011, dated 2019).
Changes are numbered by the printed parent chain. Names may count otherwise.

B1: BamHI G91S: BamHI restriction enzyme with mutation G91S (protein, UniProt P23940 1-213, looked up, variant G91S)
Type II restriction enzyme …: MEVEKEFITDEAKELLSKDKLIQQAYNEVKTSICSPIWPATSKTFTINNTEKNCNGVVPIKELCYTLLEDTYNWYREKPLDILKLEKKKGSPIDVYKEFIENSELKRVGMEFETGNISSAHRSMNKLLLGLKHGEIDLAIILMPIKQLAYYLTDRVTNFEELEPYFELTEGQPFIFIGFNAEAYNSNVPLIPKGSDGMSKRSIKKWKDKVENK
B2: Eco57I D78N: Eco57I restriction enzyme with mutation D78N (protein, UniProt P25239 1-998, looked up, variant D78N)
Type II restriction enzyme …: MNKKDQLQRLIDKYKSDIDYYRSARYNETQLRTDFLDQLFLILGWDITNAAGKPTNEREVLVEEGLKARAGENTKKPNYTFRLFSERKFFLEAKKPSVDISTTIEPALQVRRYGFTAKLKISVLSNFEYTAIYDCSNQVKETDSVANSRIKLYHFTELVDKFDEINNLIGRESVYTGHFDNEWSEIENKILRFSVDDLFLKQINDWRLLLANEFLQIKNELPEEKLNDLVQNYINSIVFLRVCEDRDLEEYETLYHFAQDKDFQSLVKKLKSSDKKYNSGLFSLEYIDELLSNANSCIWSIIEQLYFPQSTYSFSVFSSDILGNIYEIFLSEKVRIDELGNVKIQPKEEHIDRDVVTTPTHIVKEIIRNTVVEYCKGKSDIEILNSKFADIACGSGAFIIEAFQFIQDILIDYYIQNDKSKLQQISEHTYKLKFEVKREILCKCIYGIDKDYNATKACTFGLLLKLLEGETTETIGKDTPILPALDTNILFGNSLIDSGDKVKQEDIFSINPFDLTNYQFDVIVGNPPYMATEHMNQLTPKELDIYKRKYKSAYKQFDKYFLFIERSIQILKEYGYLGYILPSRFIKVDAGKKLRKFLSENKYLSKLISFGSHQVFKNKTTYTCLLFLNKENHDNFSFYEVKDFKKWLTREDKYLLSSTYQTSSLDSDTWVLEKKINDILKLMFSKSEQLGNIVGKSNVANGIQTSANKYYIHKEIKSENGFIYFEYDGIEYHIEKELTRPYFETNRSGDDSFYTYKDVEPNSFVVYPYKKVGERIQFIEYDELKRQYPKLFEFLQVVKVHLNDKKRSIKPDPTGPNEWYRYGRSQALENCDVDQKLIVGILSNGYKYSIDNHRTFVSSGGTAGYSIINIPNNVRYSIYYIQAILTSKYLEWFASIYGDIFRGRFVARGTKVQTRMPIPTIDFDDPKQKEIHDTISSKQQYLNKLYSQTQKSADRDKIIFERQFEQEKIQMDYLIKNLFDLGDLDSEIPTVEDLYKNL
B3: Eco57I E92Q: Eco57I restriction enzyme with mutation E92Q (protein, UniProt P25239 1-998, looked up, variant E92Q)
Type II restriction enzyme …: B2 Type II restriction enzyme … with N78D, E92Q
B4: EcoRV Q69E: EcoRV restriction enzyme with mutation Q69E (protein, UniProt P04390 2-245, looked up, variant Q69E)
Type II restriction enzyme …: SLRSDLINALYDENQKYDVCGIISAEGKIYPLGSDTKVLSTIFELFSRPIINKIAEKHGYIVEEPKQENHYPDFTLYKPSEPNKKIAIDIKTTYTNKENEKIKFTLGGYTSFIRNNTKNIVYPFDQYIAHWIIGYVYTRVATRKSSLKTYNINELNEIPKPYKGVKVFLQDKWVIAGDLAGSGNTTNIGSIHAHYKDFVEGKGIFDSEDEFLDYWRNYERTSQLRNDKYNNISEYRNWIYRGRK
B5: EcoRV N70D: EcoRV restriction enzyme with mutation N70D (protein, UniProt P04390 2-245, looked up, variant N70D)
Type II restriction enzyme …: B4 Type II restriction enzyme … with E68Q, N69D
B6: BsoBI D212V: BsoBI restriction enzyme with mutation D212V (protein, UniProt P70985 2-323, looked up, variant D212V)
Type II restriction enzyme …: NTQKPFENHLKSVDDLKTTYEEYRAGFIAFALEKNKRSTPYIERARALKVAASVAKTPKDLLYLEDIQDALLYASGISDKAKKFLTEDDKKESINNLIENFLEPAGEEFIDELIFRYLLFQGDSLGGTMRNIAGALAQQKLTRAIISALDIANIPYKWLDSRDKKYTNWMDKPEDDYELETFAKGISWTINGKHRTLMYNITVPLVKKNVVICLFNCEPEIYTPQKVHQQPEKYLLLGELKGGIDPAGADEHWKTANTALTRIRNKFSEKGLSPKTIFIGAAIEHSMAEEIWDQLQSGSLTNSANLTKTEQVGSLCRWIINI
B7: BsoBI E252K: BsoBI restriction enzyme with mutation E252K (protein, UniProt P70985 2-323, looked up, variant E252K)
Type II restriction enzyme …: B6 Type II restriction enzyme … with V211D, E251K
B8: BsoBI D246G: BsoBI restriction enzyme with mutation D246G (protein, UniProt P70985 2-323, looked up, variant D246G)
Type II restriction enzyme …: B6 Type II restriction enzyme … with V211D, D245G

Tests used:
[1] = tested on: sera binding to N6 mA coated ELISA plates; test: Competitive ELISA of antisera on N6 mA-BSA coated wells; parameters: species or system mice; details: 100 ng of competitor
Experimental: Competitive ELISA were performed as previously described. Itoh, K., M. Mizugaki, and N. Ishida, Preparation of a monoclonal antibody specific for 1-methyladenosine and its application for the detection of elevated levels of 1-methyladenosine in urines from cancer patients. Jpn J Cancer Res, 1988. 79(10): p. 1130-8. Wells were coated with the N6 mA-BSA conjugate ensuring that binding activity was not directed against the KLH component of the immunogen. Specificity was determined by incubating the antisera with either N6-Methyl-2-deoxyadenosine (specific inhibitor for the desired activity) or 2-Deoxyadenosine 5-monophosphate and adding it to the coated well. When antisera bound to the coated well, no competition was present.

[2] = tested on: nucleic acid recognition or cleavage site; details: mutant restriction enzyme relative to wild type; cited from earlier work

Row | Molecule | inhibition of sera binding to N6 mA coated ELISA plates [1] | % of WT cleavage activity [2]
1 | CNc1ncnc2c1ncn2[C@H]1C[C@H](O)[C@@H](CO)O1 [N6 mA, N6-Methyl-2-deoxyadenosine] | 50% | 
2 | B1 |  | 1%
3 | B2 |  | <0.1%
4 | B3 |  | <0.1%
5 | B4 |  | <0.1%
6 | B5 |  | 0%
7 | B6 |  | <0.1%
8 | B7 |  | <0.1%
9 | B8 |  | <0.1%
